Test results reported in US11312773B2, “Anti-PD-L1 antibody” (Fuso Pharmaceutical Industries, Ltd., priority 2016, dated 2022).

Tests used:
canine PD-L1 = assay: Flow cytometry cross-reactivity with canine PD-L1 expressing cells; type: binding
Protocol: COS-7 cells were subcultured at a density of 5×10^4 cells/cm^2 in 6-well plates, and then cultured overnight in RPMI 1640 medium containing 10% inactivated fetal bovine serum and 0.01% L-glutamine at 37° C. in the presence of 5% CO2. The pEGFP-N2-cPD-1, pEGFP-N2-cPD-L1 or pEGFP-N2 (negative control) was introduced into COS-7 cells at 0.4 μg/cm^2 using Lipofectamine 2000 (Invitrogen). The cells were cultured for 48 hours (cPD-1-EGFP expressing cell and cPD-L1-EGFP expressing cell). In order to confirm the expression of canine PD-1 and PD-L1 in the thus prepared expressing cells, intracellular localization of enhanced green fluorescent protein (EGFP) was visualized with an inverted confocal laser microscope LSM700 (ZEISS) (Maekawa N, Konnai S, Ikebuchi R. Okagawa T, Adachi M, Takagi S, Kagawa Y. Nakajima C, Suzuki Y, Murata S, Ohashi K. PLoS One. 2014 Jun. 10; 9(6):e98415).
In order to identify rat anti-bovine PD-L1 monoclonal antibody showing cross-reactivity with canine PD-L1, flow cytometry was performed using the anti-bovine PD-L1 antibody prepared in 2.1 above. The anti-bovine PD-L1 antibody (10 μg/ml) was reacted with 2×10^5-1×10^6 cells at room temperature for 30 min. After washing, the anti-bovine PD-L1 antibody was detected with allophycocyanine-labeled anti-rat Ig goat antibody (Beckman Coulter). FACS Verse (Becton, Dickinson and Company) was used for analysis. […]

ovine PD-L1 = assay: Flow cytometry reactivity with ovine PD-L1-EGFP expressing COS-7 cells; type: binding; details: 10 μg/ml
Protocol: (§1) COS-7 cells were subcultured at a density of 5×10^4 cells/cm^2 in 6-well plates, and then cultured overnight in RPMI 1640 medium containing 10% inactivated fetal bovine serum and 0.01% L-glutamine at 37° C. in the presence of 5% CO2. The pEGFP-N2-ovPD-1, pEGFP-N2-ovPD-L1, pEGFP-N2-poPD-1, pEGFP-N2-poPD-L1 or pEGFP-N2 (negative control) was introduced into COS-7 cells at 0.4 μg/cm^2 using Lipofectamine 2000 (Invitrogen). The cells were cultured for 48 hours (ovPD-1-EGFP expressing cell, ovPD-L1-EGFP expressing cell, poPD-1-EGFP expressing cell, and poPD-L1-EGFP expressing cell). In order to confirm the expression of ovine PD-1, ovine PD-L1, porcine PD-1 and porcine PD-L1 in the thus prepared expressing cells, intracellular localization of EGFP was visualized with an inverted confocal laser microscope LSM700 (ZEISS) or an all-in-one fluorescence microscope BZ-9000 (KEYENCE). It was confirmed by flow cytometry that rat anti-bovine PD-L1 monoclonal antibody cross-reacts with ovine and porcine PD-LL. […] After washing, the cells were reacted with allophycocyanine-labeled anti-rat Ig goat antibody (Beckman Coulter) at room temperature for 30 min. For analysis, FACS Verse (BD Bioscience) was used. As a negative control antibody, rat IgG2a (κ) isotype control (BD Bioscience) was used. For every washing operation and dilution of antibodies, 1% bovine serum albumin supplemented PBS was used.

porcine PD-L1 = assay: Flow cytometry reactivity with porcine PD-L1-EGFP expressing COS-7 cells; type: binding; details: 10 μg/ml
Protocol: as §1

ovine PD-1/PD-L1 binding = assay: Ovine PD-1/PD-L1 binding inhibition test (PD-1-EGFP COS-7 cells and PD-L1-Ig); details: antibody 0-50 μg/ml, ovine PD-L1-Ig 1 μg/ml
Protocol: Using ovine PD-1-EGFP expressing COS-7 cells and ovine PD-L1-Ig recombinant protein, or porcine PD-1-EGFP expressing COS-7 cells and porcine PD-L1-Ig recombinant protein, inhibition of ovine or porcine PD-1/PD-L1 binding by rat anti-bovine PD-L1 antibody […] was tested. […] Subsequently, the antibody 4G12 was reacted with 2×10^5 ovine PD-1-EGFP expressing COS-7 cells or porcine PD-1-EGFP expressing COS-7 cells at 37° C. for 30 min. After washing, ovine PD-L1-Ig or porcine PD-L1-Ig bound to cell surfaces was detected with Alexa Fluor 647-labeled anti-rabbit IgG (H+L) goat F(ab′)2 (Life Technologies). For analysis, FACS Verse (BD Biosciences) was used. As a negative control antibody, rat IgG2a (κ) isotype control (BD Biosciences) was used. Taking the proportion of PD-L1-Ig bound cells without antibody addition as 100%, the proportion of PD-L1-Ig bound cells at each antibody concentration was shown as relative value.

[1] = test system: PBMCs of BLV-infected cattle; assay: Biological activity test: IFN-γ production of PBMCs of BLV-infected cattle to BLV antigen; details: 10 μg/ml antibody, 2% FLK-BLV supernatant, 6 days, n=10

B1: 4G12: rat anti-bovine PD-L1 monoclonal antibody; VL SEQ ID NO: 1, VH SEQ ID NO: 2 (antibody, listed as Rattus norvegicus, V domains shown)
VH: MGWSQIILFLVAAATCVHSQVQLQQSGAELVKPGSSVKISCKASGYTFTSNFMHWVKQQPGNGLEWIGWIYPEYGNTKYNQKFDGKATLTADKSSSTAYMQLSSLTSEDSAVYFCASEEAVISLVYWGQGTLVTVSS
VL: MESQTHVLISLLLSVSGTYGDIAITQSPSSVAVSVGETVTLSCKSSQSLLYSENQKDYLGWYQQKPGQTPKPLIYWATNRHTGVPDRFTGSGSGTDFTLIISSVQAEDLADYYCGQYLVYPFTFGPGTKLELK
Canine PD-L1
  Cross-reactivity with / binding to canine PD-L1: showed cross-reaction with canine PD-L1
Ovine PD-L1
  Binding to ovine PD-L1: binds to ovine and porcine PD-L1
Porcine PD-L1
  Binding to porcine PD-L1: binds to ovine and porcine PD-L1
Ovine PD-1/PD-L1 binding
  Inhibition of ovine PD-1/PD-L1 binding: capable of inhibiting
[1]
  IFN-γ response of bovine PBMCs to BLV antigen: increases
